Reference: patent publication US20170224620A1 (Pfizer, published 2017)
Bridges are numbered along the chain shown (N, C = ends). Primed or numbered codes have the meaning given here. [ ]: non-standard residue; d: D form. The star is where a group is joined. Trp(5-OMe) = COc1ccc2[nH]cc(C[C@H](N)C(=O)O)c2c1; Igl = N[C@H](C(=O)O)C1Cc2ccccc2C1; Pen = CC(C)(S)[C@H](N)C(=O)O; DBCO′ = dibenzocyclooctyne; Acm = CC(=O)NC*

Columns and labels:
[1] = molecular target: T1, EGF bound EGFR (rhEGFR-Fc with recombinant human EGF pre-injected in SPR or 50 nM EGF present in ELISA) (human, UniProt P00533 25-645; P01133 971-1023); assay: P2 competition ELISA: rhEGFR on the plate, 1 nM P2-Biotin dimer as tracer, 50 nM EGF; concentration on a ligand molar basis
T1 construct: Complex of m1 and m5 as target; also called EGFR in the presence of EGF; With EGF; not shown: Fc tag
From the text: (§1) An additional assay was developed to provide an orthogonal assay to SPR during the evaluation of the P₂ peptide analogs and nanoparticle conjugates.

[2] = molecular target: T1, EGF bound EGFR (rhEGFR-Fc with …); assay: P2 competition ELISA, 1% ligand density NP
[3] = molecular target: T2, Fc tagged recombinant human EGFR (rhEGFR-Fc, R&D systems, Cat#344-ER-050) (human, UniProt P00533 25-645); assay: SPR
T2 construct: Bought protein; also called apo-EGFR; not shown: Fc tag

[4] = molecular target: T1, EGF bound EGFR (rhEGFR-Fc with …); assay: P2 competition ELISA: rhEGFR on the plate, 1 nM P2-Biotin dimer as tracer, 50 nM EGF
From the text: as §1

[5] = molecular target: T2, Fc tagged recombinant human EGFR …; assay: SPR, peptide over captured rhEGFR-Fc, without EGF
Method: (§2) Surface plasmon resonance (SPR) binding studies were carried out on a Biacore T200 instrument (GE Healthcare). […] The contact time and resulting amount of rhEGFR-Fc capture was varied based on the nature of the analyte, namely whether it was a peptide or nanoparticle.
(§3) Peptide binding assays were carried out in 10 mM PBS buffer supplemented with 0.05% surfactant P20 and 5% DMSO by volume, at 25° C. Peptides were injected over the rhEGFR-Fc surface for 60 s, followed by dissociation (buffer injection) for 60 s and regeneration with a 10 s pulse of 3M MgCl₂. A fresh rhEGFR-Fc surface was generated for each concentration of each peptide tested. Peptide binding data was analyzed by fitting to a 1:1 Langmuir kinetic model to obtain the on-rate (kₐ), off-rate (kd) and/or equilibrium binding constant (KD) of the interaction.
The two aromatic mutations P₂₋₉₈ and P₂₋₁₀₁ were combined into one peptide (P₂₋₁₀₂).

[6] = molecular target: T1, EGF bound EGFR (rhEGFR-Fc with …); assay: SPR, peptide over captured rhEGFR-Fc after rhEGF pre-injection
Method: as §2, §3

[7] = molecular target: T2, Fc tagged recombinant human EGFR …; assay: SPR, response against peptide concentration, rhEGFR-Fc captured
Method: as §2, §3
All of the peptides were synthesized and evaluated for EGFR binding using SPR (Table 7). […] FIGS. 8A and 8B show a summary of the SPR binding data for the peptides.

[8] = molecular target: T1, EGF bound EGFR (rhEGFR-Fc with …); assay: P2 competition ELISA, 5% ligand density NP
[9] = molecular target: T1, EGF bound EGFR (rhEGFR-Fc with …); assay: P2 competition ELISA, 5% nanoparticle conjugate
[10] = molecular target: T2, Fc tagged recombinant human EGFR …; assay: screening ELISA, peptide 100 µM against 0.7 nM biotin-EGF on coated rhEGFR
[11] = molecular target: T2, Fc tagged recombinant human EGFR …; assay: EGF competition ELISA, 10% nanoparticle conjugate
[12] = molecular target: T2, Fc tagged recombinant human EGFR …; assay: EGF competition ELISA, 10% nanoparticle conjugate; remark: listed apart in the source
Method: An alanine scan was performed on the amino acids within the cyclic portion of the peptide structure to determine which amino acids were critical for binding. Each amino acid within the peptide was individually replaced with alanine. […] Subsequently, an alanine scan of the flanking amino acids on P₁₋₃ was performed.

[13] = molecular target: Fc tagged recombinant human EGFR (rhEGFR-Fc, R&D systems, Cat#344-ER-050) (human) (UniProt P00533); assay: screening ELISA, peptide 100 µM against 0.7 nM biotin-EGF on coated rhEGFR

## Ac-DPCTWEVWGRECLQGGK-NH2 (other, disulfide 3-12; not fully specified (residue 17), also called P2 1% Ligand Density NP) [1% P2 nanoparticle]
[1]
  IC50 (read off the curve): ~30 nM
[2]
  IC50: 81 µg/mL

## Ac-CFPAAPDWLSCGGK(DBCO′)-NH2 (disulfide 1-11 (inferred)) [P1-3-6]
[3]
  binding result: no binding

B1: P2 (Ac-DPCTWEVWGRECLQGGK(PEG4-DBCO)-CONH2) (peptide)
peptide: Ac-DPCTWEVWGRECLQGGK(PEG4‑DBCO)-NH2
modifications: disulfide 3-12
notes: also called P2 DBCO conjugate; parent peptide (P2)
[4]
  IC50 (read off the curve): ~200 nM

## Ac-DPCT[Igl]EV[Trp(5-OMe)]GRECLQGGK(PEG4‑DBCO)-NH2 (disulfide 3-12, also called aromatic analog) [P2-102 (Ac-DPCT(2Ind)GEV(5MeO)WGRECLQGGK(PEG4-DBCO)-CONH2)]
[5]
  Kd: 38 nM
[6]
  Kd: 32 nM

## Ac-DACT[Igl]EV[Trp(5-OMe)]GRECLQGGK(DBCO′)-NH2 (disulfide 3-12, also called DA Aro) [P2-2/102 (Ac-DACT(2Ind)GEV(5MeO)WGRECLQGGK(DBCO)-CONH2)]
[5]
  Kd: 23.8 nM
[6]
  Kd: 23.3 nM

## Ac-MFCFRWYAGWSCVS-NH2 (disulfide 3-12 (inferred), named singly only on the sheet) [Peptide 8]
[7]
  binding result: binds

## Ac-CFPAAPDWLSCGGK(DBCO′)-NH2 (disulfide 1-11 (inferred)) [P1-3-7]
[3]
  binding result: no binding

B2: 5% P2 nanoparticle (other)
peptide: Ac-DPCTWEVWGRECLQGGK-NH2
modifications: disulfide 3-12; not fully specified (residue 17)
notes: also called P2 5% Ligand Density NP; parent P2 conjugated nanoparticle (5%)
[8]
  IC50: 4.3 µg/mL
[1]
  IC50 (read off the curve): ~9 nM
[9]
  IC50: 6 µg/mL

## H-RCQYRDLKWW-NH2 [EGFf-9]
[10]
  % inhibition of EGF: 63.8%

## {DBCO′}-SECFPAAPDWLSCIL-NH2 (disulfide 3-13 (inferred), also called Alternate DBCO placement) [P1-3-14]
[3]
  binding result: no binding

B3: Peptide 1 (peptide)
peptide: Ac-SECFPLAPDWLSCIL-NH2
modifications: disulfide 3-13 (inferred)
notes: named singly only on the sheet; also called free literature peptide without the GGK(DBCO) tail
[7]
  binding result: binds

B4: EGFf-6 (peptide)
peptide: H-LDKYACNC(Acm)VV-NH2
SMILES: CC(=O)NCSC[C@H](NC(=O)[C@H](CC(N)=O)NC(=O)[C@H](CS)NC(=O)[C@H](C)NC(=O)[C@H](Cc1ccc(O)cc1)NC(=O)[C@H](CCCCN)NC(=O)[C@H](CC(=O)O)NC(=O)[C@@H](N)CC(C)C)C(=O)N[C@H](C(=O)N[C@H](C(N)=O)C(C)C)C(C)C
[10]
  % inhibition of EGF: < 20%

## H-YRDLKWWELR-NH2 [EGFf-10]
[10]
  % inhibition of EGF: < 20%

B5: 10% P1 nanoparticle (other)
peptide: Ac-SECFPLAPDWLSCILGGK(DBCO′)-NH2
modifications: disulfide 3-13; also: DBCO clicked to azide PLA-PEG nanoparticle, 10 mol %
notes: Multivalent nanoparticle conjugate; also called P1 conjugated to nanoparticle at 10 mol %; P1 NP
[11]
  IC50: 211 µg/mL

## Ac-SECAPLAPDWLSCILGGK(DBCO′)-NH2 (other, disulfide 3-13; also: DBCO clicked to azide PLA-PEG nanoparticle, 10 mol %) [10% P1-1 nanoparticle]
[12]
  10% NP Relative IC50 (normalized to P1): ~0.3 ratio

B6: 10% P1-3 nanoparticle (other)
peptide: Ac-SECFPAAPDWLSCILGGK(DBCO′)-NH2
modifications: disulfide 3-13; also: DBCO clicked to azide PLA-PEG nanoparticle, 10 mol %
notes: also called P1-3 NP; P1-3 (Leu6-Ala) conjugate
[11]
  IC50: 10.3 µg/mL

## Ac-AECFPAAPDWLSCILGGK(DBCO′)-NH2 (other, disulfide 3-13; also: DBCO clicked to azide PLA-PEG nanoparticle, 10 mol %) [10% P1-3-1 nanoparticle]
[12]
  10% NP Relative IC50 (normalized to P1): 1 ratio

## H-GYIGERCQYR-NH2 [EGFf-8]
[10]
  % inhibition of EGF: < 20%

## Ac-SGCLDALWQCVY-NH2 (disulfide 3-10 (inferred), named singly only on the sheet) [Peptide 4]
[7]
  binding result: binds

B7: P2-55 (Ac-DPPen…enLQGGK(PEG4-DBCO)-CONH2) (peptide)
peptide: DPXTWEVWGREXLQGGK
modifications: N-terminal acetyl; penicillamine at 3 and 12, disulfide; Lys17(PEG4-DBCO); C-terminal amide
notes: also called Pen analog
[5]
  Kd: 74 nM
[6]
  Kd: 69 nM

B8: 5% P2-2/55 nanoparticle (other)
peptide: DAXTWEVWGREXLQGGK
modifications: not fully specified; N-terminal acetyl; penicillamine at 3 and 12, disulfide; Lys17(DBCO) clicked to azide PLA-PEG nanoparticle at 5%; C-terminal amide
notes: also called P2-2/55 [DA PenPen]; NP; Ala2-Pen
[9]
  IC50: 6.3 µg/mL
  Rel. Diff. (against P2 NP): 1.05 ratio

B9: P2-2/55/102 (Ac-DAPenT(2Ind)GEV(5MeO)WGREPenLQGGK(DBCO)-CONH2) (peptide)
peptide: Ac-DA[Pen]T[Igl]EV[Trp(5-OMe)]GRE[Pen]LQGGK(DBCO′)-NH2
modifications: disulfide 3-12
notes: also called DA Aro PenPen; triple mutant
[5]
  Kd: 53 nM
[6]
  Kd: 33.4 nM

## Ac-DP[Pen]T[Igl]EV[Trp(5-OMe)]GRE[Pen]LQGGK(DBCO′)-NH2 (disulfide 3-12, also called Aro PenPen) [P2-55/102 (Ac-DPPenT(2Ind)GEV(5MeO)WGREPenLQGGK(DBCO)-CONH2)]
[5]
  Kd: 72 nM
[6]
  Kd: 75.4 nM

B10: P2-2/55 (Ac-DAPen…enLQGGK(DBCO)-CONH2) (peptide)
peptide: DAXTWEVWGREXLQGGK
modifications: N-terminal acetyl; penicillamine at 3 and 12, disulfide; Lys17(DBCO); C-terminal amide
notes: also called DA PenPen
[5]
  Kd: 137 nM
[6]
  Kd: 97 nM

## H-DGYCLHDGVC-NH2 (cysteine pairing not given here) [EGFf-3]
[13]
  % inhibition of EGF: 62.5%

B11: EGFf-7 (peptide)
peptide: H-C(Acm)NCVVGYIGE-NH2
SMILES: CC[C@H](C)[C@H](NC(=O)[C@H](Cc1ccc(O)cc1)NC(=O)CNC(=O)[C@@H](NC(=O)[C@@H](NC(=O)[C@H](CS)NC(=O)[C@H](CC(N)=O)NC(=O)[C@@H](N)CSCNC(C)=O)C(C)C)C(C)C)C(=O)NCC(=O)N[C@@H](CCC(=O)O)C(N)=O
[10]
  % inhibition of EGF: < 20%
